Measured values from US20220135940A1, “METHOD FOR PRODUCING KIDNEY STRUCTURE HAVING DENDRITICALLY BRANCHED COLLECTING DUCT FROM PLURIPOTENT STEM CELLS” (NATIONAL UNIVERSITY CORPORATION KUMAMOTO UNIVERSITY, priority 2018, published 2022).

Experiments:
Type in all cases: cell-based
[1] = tested on: human iPS cells; assay: Induction of ITGA8+/PDGFRA- nephron progenitor cells from human iPS cells, FACS at day 12; conditions: epiblast patterning stage, absence of Bmp4
Procedure: The previously reported protocol (Taguchi 2014 above) was modified and applied. In the presence of 10 μM Y27632 and 1 ng/mL human activin A, cells were reaggregated at 10,000 cells per aggregate in a V-bottom 96-well low cell binding plate, to form embryonic bodies (EBs). After 24 hours (day 1), the aggregates were transferred to a U-bottom 96-well low cell binding plate containing the mesoderm-inducing medium containing 10 μM CHIR. Subsequently, half of the culture medium was replaced with a fresh medium every other day (day 3 and day 5). On day 7, the medium was replaced with ABC3R medium containing 10 ng/mL human activin A, 3 ng/mL human Bmp4, 3 μM CHIR and 0.1 μM retinoic acid. On day 9, the medium was replaced with ClF medium containing 1 μM CHIR and 5 ng/mL human Fgf9.
(§1) Cell aggregates induced from embryonic tissue or mouse ES cells/human iPS cells were dissociated and blocked with normal mouse serum and then cell surface marker staining was carried out in a buffer containing 1% BSA, 1×HBSS and 0.035% NaHCO3. Data analysis was performed with FlowJo software (Treestar).
Next, the optimal time window for inducing anterior or posterior intermediate mesoderm from the nascent mesoderm was examined. […]

[2] = tested on: mouse ES cells; assay: AIM induction from mouse ES cells (procedure 3), AIM marker expression; conditions: Fgf9 at high concentrations
Procedure: (§2) ES cells were differentiated in a serum-free medium as follows. The ES cells were dissociated with Accutase™ (ESGRO) and cultured in a serum-free mouse ES cell differentiation medium. The harvested cells were aggregated in a 96-well U-bottom low cell binding plate at 1,000 cells per aggregate to form embryonic bodies (EBs). After 48 hours (day 2), the EBs were dissociated with Accutase and re-aggregated in a serum-free differentiation medium supplemented with 10 ng/mL human activin A (R & D) (Procedure 1). After 24 hours (day 3), the medium was replaced with a medium containing 0.3 ng/mL human Bmp4 (R & D) and 10 μM CHIR 99021 (Procedure 2). After 36 hours (day 4.5), the medium was replaced with procedure 3 medium containing 0.1 μM retinoic acid, 100 ng/mL human Fgf9 and 10 μM SB431542 (Wako). On day 5.5 (24 hours later), the medium was replaced with a medium containing 0.1 μM retinoic acid, 100 ng/mL human Fgf9 and 5 μM CHIR99021 (“Procedure 4 medium”). The differentiation factors of the Hoxb7-GFP ES cell line are shown in the table below together with the differentiation factors of the Osr1-GFP ES cell line.
Harvested spheroids or cells were homogenized, and total RNA was isolated using RNeasy Plus Micro Kit (Qiagen), and then a reverse-transcribed with random primers and Superscript III (Invitrogen). Quantitative PCR was carried out using Real-Time PCR system (Takara Bio) and Thunderbird SYBR qPCR Mix (Toyobo). With normalized by β-actin gene, relative mRNA expression levels were analyzed.
Next, signaling for the AIM differentiation procedure was hypothesized, which is partially different from that for PIM, based on the gene expression profile minimally conserved, between anterior intermediate mesoderm (AIM) (Osr1+, Pax2+, Pax8+, Emx2+, Lhx1+, Gata3+) and posterior intermediate mesoderm (PIM) (Osr1+, Wtl+, Hoxll+) (Procedure 3 in FIG. 2).

[3] = tested on: mouse ES cells; assay: Induction of CXCR4+/KIT+ WD progenitors from mouse ES cells, FACS at day 6.25; conditions: Bmp4 in procedure 2, activin A in procedure 1
Procedure: as §2
On day 6.25, the induced spheroids were harvested and dissociated by incubating in 0.25% trypsin/EDTA at 37° C. for 6 minutes. After blocking in normal mouse serum, cell surface marker (CXCR4/KIT) staining was carried out in a buffer containing 1% BSA, 1×HBSS and 0.035% NaHCO3. The FACS-sorted 3,000 Hoxb7-GFP+/CXCR4+/KIT+ cells were aggregated in a V-bottom 96-well low cell binding plate to form spheroids. Subsequently, these were cultured using the above E8.75 embryonic tissue culture conditions.
as §1

[4] = tested on: human iPS cells; assay: Induction of CXCR4+/KIT+ WD progenitors from human iPS cells, FACS at day 6.25; conditions: epiblast patterning stage (day 0 to day 1), combination of activin A and Bmp4
Procedure: Cells were reaggregated at 10,000 cells per aggregate in a V-bottom 96-well low cell binding plate using a medium containing 10 μM Y27632 and 10 ng/mL human activin A and 1 ng/mL human Bmp4 (“Procedure 1 medium”), to form embryonic bodies (EBs). After 24 hours (day 1), the aggregates were transferred to a U-bottom 96-well low cell binding plate containing a medium containing 10 μM CHIR and 1 ng/mL human Bmp4 (“Procedure 2 medium”). After 36 hours (day 2.5), the medium was replaced with a medium containing 0.1 μM retinoic acid, 100 ng/mL human Fgf9, 100 nM LDN193189 and 100 μM SB431542 (“Procedure 3 medium”). On day 4.5, the medium was replaced with a medium containing 0.1 μM retinoic acid, 5 μM CHIR, 100 ng/mL human Fgf9 and 30 nM LDN193189 (“Procedure 4 medium”).
On day 6.25, the induced spheroids were harvested and dissociated by incubating in 0.25% trypsin/EDTA for 6 minutes at 37° C. After blocking in normal mouse serum, cell surface marker (CXCR4/KIT) staining was carried out in a buffer containing 1% BSA, 1×HBSS and 0.035% NaHCO3. The FACS-sorted 5,000 of CXCR4+/KIT+ cells were seeded in a V-bottom 96-well low cell binding plate and precipitated by the centrifuge (210 G for 4 minutes). The supernatant was replaced with a medium containing 10 μM Y27632, 0.1 μM retinoic acid, 1 μM CHIR, 5 ng/mL human Fgf9, 100 ng/mL human Fgf1, 10 nM LDN193189 and 10% growth factor reduced Matrigel (“Procedure 5 medium”). On day 8.5, the spheroids were transferred to a medium containing 10 μM Y27632, 0.1 μM retinoic acid, 3 μM CHIR, 5 ng/mL human Fgf9, 1 ng/mL human GDNF, 100 ng/mL human Fgf1, 10 nM LDN193189 and 10% growth factor reduced Matrigel (“Procedure 6 medium”). On day 10.5, the spheroids were transferred to a medium containing 10 μM Y27632, 0.1 μM retinoic acid, 3 μM CHIR, 2 ng/mL human GDNF, 100 ng/mL human Fgf1, 10 nM LDN193189 and 10% growth factor reduce Matrigel (“Procedure 7 medium”).
as §1
Next, the optimal time window for inducing anterior or posterior intermediate mesoderm from the nascent mesoderm was examined. Since the nascent mesoderm population is maintained by the high concentrations of Wnt agonists, the incubation period with Wnt agonists was varied and the subsequent differentiation was applied with conditions specific to the UB or metanephric nephron progenitor cell lineage. The induction efficiency of CXCR4+/KIT+ WD progenitor or ITGA8+/PDGFRA− nephron progenitor cell fraction was examined at day 6.25 or day 12, respectively. […]

B1: activin A: homodimer of two inhibin BA chains (protein, UniProt P08476 311-426, looked up)
Inhibin beta A chain: GLECDGKVNICCKKQFFVSFKDIGWNDWIIAPSGYHANYCEGECPSHIAGTSGSSLSFHSTVINHYRMRGHSPFANLKSCCVPTKLRPMSMLYYDDGQNIIKKDIQNMIVEECGCS
modifications: Inhibin beta A chain
notes: homodimer of two inhibin BA chains
concentration at which induction of nephron progenitor cells was maximized [1]: 1 ng/mL | induction of AIM markers [2]: inhibitory to the induction of AIM markers | UB induction versus MM induction, concentration dependence [3]: higher concentration of activin A was preferred for UB induction | concentration at which WD progenitor induction peaked [4]: 10 ng/mL
